From patent US20180214548A1 (SHANGHAI YUNYI HEALTHCARE AND TECHNOLOGY, published 2018)

B1: chimeric anti-PD-1 antibody 21G8F11 (antibody, V domains shown)
VH: EVQLLESGGGLAQPGGSLRLSCAASGFSFNTYLMHWVRQAPGKGLEWVSAISGGGGNTYYADSVKGRFTISRDNSKNTLYLQMNSLRAEDTAVYYCAKENRIPVAPFDYWGQGTLVTVSS
VL: DIQMTQSPSTLSASVGDRVTITCRASQSISTWLAWYQQKPGKAPKLLIYKASSLESGVPSRFSGSGSGTEFTLTISSLQPDDLATYYCQQYNSFSWTFGQGTKVEIK
B2: chimeric anti-PD-1 antibody 32B5C7 (antibody, V domains shown)
VH: EVQLLESGGGLVQPGGSLRLSCAASGFTFSSYAMSWVRQAPGKGLEWVSTISGSGGTTYYADSVKGRFTISRDNSKNTLYLQMNSLRAEDTAVYYCTLTGDPDYWGQGTLVTVSS
VL: EIVLTQSPATLSLSPGERATLSCRASQSVSSYLAWYQQKPGQAPRLLIYDASKRATGIPARFSGSGSGTDFTLTISSLEPEDFAVYYCQQRNNWPLTFGGGTKVEIK
B3: fully human anti-PD-1 antibody 32B5C7 (antibody, human IgG4 S228P, kappa, V domains shown)
VH: B2 VH
VL: EIVLTQSPATLSLSPGERATLSCRASQSVSSYLAWYQQKPGQAPRLLIYDASKRATGIPARFSGSGSGTDFTLTISSLEPEDFAVYYCQQRNNWPLTFGGGTKVEIKR
B4: chimeric anti-PD-1 antibody 226C3A7 (antibody, V domains shown)
VH: QVQLQQSGPGLVNPSQTLSLTCAISGDSVSSNSGAWNWIRQSPSRGLEWLGRTYYRSKWYNDYGISVQSRITINPDTSKNHFSLQLNSVTPEDTAVYYCARDPYYYGSGSYFDYWGQGTLVTVSS
VL: EIVMTQSPATLSVSPGERVTLSCRASLSVNSNLAWYQQKPGQAPRLLIYDTSTRATGVPARFSGSGSGTEFTLTISSLQSEDFAVYYCQQYHYWPLTFGGGTKVEIK
B5: chimeric anti-PD-1 antibody 204C5E12 (antibody, V domains shown)
VH: QVQLVESGGGVVQPGRSLRLSCAASGFSFSYYGMHWVRQAPGKGLEWVAVIWYDGSNKYYADSVKGRFTISRDNSKNTLYLQMNSLRAEDTAVYYCASGITLVRGADYYYNYDMDVWGQGTTVTVSS
VL: not shown
B6: chimeric anti-PD-1 antibody 76G5B3 (antibody, V domains shown)
VH: QVQLVESGGGVVQPGRSLRLSCAASGFTFSDYGFHWVRQAPGKGLEWVAVIWYDGSNEYYTDSVKGRFTISRDNSKNTLYLQMNSLRAEDTAMYFCVVNPFDYWGQGTLVTVSS
VL: DIQMTQSPSSLSAFVGDRVTITCRASQGINHYLAWYQQKPGKAPNLLILAASTLLSGVPSRFGGRGSGTDFTLIISSLQPEDVATYYCQKYDSAPYTFGQGTKLEIK
B7: chimeric anti-PD-1 antibody 223G6B5 (antibody, V domains shown)
VH: QVQLQESGPGLVKPSETLSLTCAVSGHSIRGSYFWGWIRQPPGRGLEWIGSIYHSGSTYTNPSLKSRATISVDTSKNQFSLKLNSVTAADTAVYYCARDLDIATTRDYWGQGTLVTVSS
VL: DIQLTQSPSFLSASVGDRVTIICRASQGINNYLAWYQQKPGKAPKLLIYAASTLQSGVPSRFSGSGSGTEFTLTISSLQPEDFATYYCQQLDSYPRTFGQGTKVEIKR

Experiments:
[1] = target: T1, human PD-1, full length, on cells (human, UniProt Q15116 25-288); assay: cell-based or functional assay
T1 sequence (Q15116 25-288): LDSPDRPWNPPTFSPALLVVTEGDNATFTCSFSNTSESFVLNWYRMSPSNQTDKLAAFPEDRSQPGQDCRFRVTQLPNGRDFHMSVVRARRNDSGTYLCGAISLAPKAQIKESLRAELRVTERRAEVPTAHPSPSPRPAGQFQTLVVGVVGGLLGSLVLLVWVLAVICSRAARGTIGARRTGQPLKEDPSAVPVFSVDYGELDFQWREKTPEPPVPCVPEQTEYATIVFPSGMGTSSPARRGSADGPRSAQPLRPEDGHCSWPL

[2] = target: T1, human PD-1, full length, on cells; assay: cell-based or functional assay; remark: listed apart in the source
[3] = target: T1, human PD-1, full length, on cells; assay: cell-based or functional assay; remark: listed apart in the source
[4] = target: T1, human PD-1, full length, on cells; assay: cell-based or functional assay; remark: listed apart in the source
[5] = target: T2, cyno PD-1, full length, on CHO-K1 cells (cyno monkey, UniProt B0LAJ3 25-288); assay: flow cytometry on CHO-K1-cPD-1 cells
T2 construct: also called CHO-K1-cPD-1; cPD-1
T2 sequence (B0LAJ3 entry or part of it limits assumed): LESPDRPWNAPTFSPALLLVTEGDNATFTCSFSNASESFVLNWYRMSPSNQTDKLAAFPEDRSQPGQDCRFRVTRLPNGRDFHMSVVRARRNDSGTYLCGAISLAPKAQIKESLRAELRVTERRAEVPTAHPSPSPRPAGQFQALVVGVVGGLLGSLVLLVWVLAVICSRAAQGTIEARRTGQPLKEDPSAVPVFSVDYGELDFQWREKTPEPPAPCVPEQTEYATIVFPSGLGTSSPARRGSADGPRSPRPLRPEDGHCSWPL
Description: CHO-K1 cells were stably transfected with pIRES plasmid containing the nucleic acid sequence encoding full length human PD-1 (see Example 2, step 2) to generate CHO-K1 cells stably expressing human PD-1 (herein referred to as CHO-K1-hPD-1 cells). Other CHO-K1 were stably transfected with pIRES plasmid containing the nucleic acid sequence encoding full length cyno PD-1 to generate CHO-K1 cells stably expressing cyno PD-1 (herein referred to as CHO-K1-cPD-1 cells). CHO-K1-hPD-1 and CHO-K1-cPD-1 cells were cultured and expanded in T-75 culture flasks to 90% confluence. The culture media was aspirated, and the cells were washed twice with HBSS (Hanks Balanced Salt Solution, Invitrogen). The cells were treated with enzyme-free cell dissociation solution (Versene solution, Invitrogen) and collected. The cells were then washed twice with HBSS, cell counts were determined, and cells were resuspended with HBSS at 2×10⁶ cells/mL. Goat serum was added to the cell suspension to a final concentration of 1%, and the cells were blocked for 30 minutes on ice and then washed twice with HBSS. The cells were collected after centrifugation and resuspended in FACS buffer (HBSS+1% BSA, v/v) at 2×10⁶ cells/mL. 100 uL of the cell suspension were then added to each well of 96-well plate. 100 uL of purified anti-PD-1 antibodies from Example 2 were added to each well of the 96-well plate and incubated for 2 hours on ice. […] The samples were washed three times with FACS buffer, and 100 uL fixation buffer (4% paraformaldehyde v/v) were added to each well and incubated for 10 minutes. The cells were then washed twice with FACS buffer and resuspended in 100 uL FACS buffer. The mean fluorescence intensity (MFI) was determined using FACS Calibur (BD), and the results are shown in FIGS. 7-8 and in Tables 10-11.

[6] = target: T3, human PD-1^ECD-hFc protein (Immunogen A) (human, UniProt Q15116 25-167); assay: BLI Octet Red 96, biotinylated PD-1ECD-hFc on streptavidin sensor
T3 construct: also called PD-1-hFc; hPD-1^ECD-hFc; not shown: human IgG Fc fragment (hFc)
T3 sequence (Q15116 25-167): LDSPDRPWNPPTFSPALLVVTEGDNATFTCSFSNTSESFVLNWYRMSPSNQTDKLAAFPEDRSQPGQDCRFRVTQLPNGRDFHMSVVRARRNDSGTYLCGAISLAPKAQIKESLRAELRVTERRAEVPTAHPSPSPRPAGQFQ
Description: Dissociation constants were determined by Octed red 96 (Fortiebio). The detailed operation and methods were followed according to the specifications of the instrument provided by the manufacturer. Briefly, a streptavidin sensor (SA sensor, Fortiebio) was used for the affinity determination. […] The reaction mixture was further incubated in PBS buffer (pH7.4) containing 0.1% (v/w) BSA and 0.02% (v/v) Tween20 at 30° C. for 5 minutes. […] The affinity, association and dissociation constants were determined using Octet User software, and the results are shown in Table 12.

[7] = target: T1, human PD-1, full length, on cells; assay: flow cytometry on CHO-K1-hPD-1 cells

Binder | MFI at 0.1 nM [5] [MFI] | MFI at 1 nM [5] [MFI] | MFI at 10 nM [5] [MFI] | MFI at 100 nM [5] [MFI] | MFI at 0.0316 nM [5] [MFI] | MFI at 0.316 nM [5] [MFI] | MFI at 3.16 nM [5] [MFI] | MFI at 31.6 nM [5] [MFI] | other results
B1 | 23.4 | 156 | 773 | 944 |  |  |  |  | IL-2 release, mixed lymphocyte reaction (PBMC donor-1), antibody 0.001 µg/mL [1]: 33.1 pg/mL; IL-2 release, mixed lymphocyte reaction (PBMC donor-1), antibody 0.01 µg/mL [1]: 48.9 pg/mL; IL-2 release, mixed lymphocyte reaction (PBMC donor-1), antibody 0.1 µg/mL [1]: 106 pg/mL; IL-2 release, mixed lymphocyte reaction (PBMC donor-1), antibody 1 µg/mL [1]: 65.6 pg/mL; IL-2 release, mixed lymphocyte reaction (PBMC donor-2), antibody 0.001 µg/mL [2]: 30 pg/mL; IL-2 release, mixed lymphocyte reaction (PBMC donor-2), antibody 0.01 µg/mL [2]: 43.4 pg/mL; IL-2 release, mixed lymphocyte reaction (PBMC donor-2), antibody 0.1 µg/mL [2]: 74.2 pg/mL; IL-2 release, mixed lymphocyte reaction (PBMC donor-2), antibody 1 µg/mL [2]: 103 pg/mL; IFN-γ release, mixed lymphocyte reaction (PBMC donor-1), antibody 0.001 µg/mL [3]: 3010 pg/mL; IFN-γ release, mixed lymphocyte reaction (PBMC donor-1), antibody 0.01 µg/mL [3]: 5910 pg/mL; IFN-γ release, mixed lymphocyte reaction (PBMC donor-1), antibody 0.1 µg/mL [3]: 15300 pg/mL; IFN-γ release, mixed lymphocyte reaction (PBMC donor-1), antibody 1 µg/mL [3]: 15200 pg/mL; IFN-γ release, mixed lymphocyte reaction (PBMC donor-2), antibody 0.001 µg/mL [4]: 2090 pg/mL; IFN-γ release, mixed lymphocyte reaction (PBMC donor-2), antibody 0.01 µg/mL [4]: 2720 pg/mL; IFN-γ release, mixed lymphocyte reaction (PBMC donor-2), antibody 0.1 µg/mL [4]: 2630 pg/mL; IFN-γ release, mixed lymphocyte reaction (PBMC donor-2), antibody 1 µg/mL [4]: 2830 pg/mL
B2 | 13.7 | 46.3 | 174 | 150 | 2.2 | 25.8 | 89 | 151 | Kd [6]: 0.045 nM; koff [6]: 9.64e-06 s⁻¹; kon [6]: 212000 M⁻¹ s⁻¹
B3 |  |  |  |  |  |  |  |  | MFI at 0.01 nM [7]: 2.8 MFI
B4 | 3.3 | 5.8 | 221 | 933 | 3.3 | 3.6 | 28 | 848 | 
B5 | 3.1 | 5.1 | 156 | 944 | 2.9 | 3.1 | 23.4 | 773 | 
B6 | 28.4 | 132 | 326 | 297 | 2.3 | 59.3 | 217 | 314 | IL-2 release, mixed lymphocyte reaction (PBMC donor-1), antibody 0.001 µg/mL [1]: 88.8 pg/mL; IL-2 release, mixed lymphocyte reaction (PBMC donor-1), antibody 0.01 µg/mL [1]: 131 pg/mL; IL-2 release, mixed lymphocyte reaction (PBMC donor-1), antibody 0.1 µg/mL [1]: 148 pg/mL; IL-2 release, mixed lymphocyte reaction (PBMC donor-1), antibody 1 µg/mL [1]: 140 pg/mL; IL-2 release, mixed lymphocyte reaction (PBMC donor-2), antibody 0.001 µg/mL [2]: 93.3 pg/mL; IL-2 release, mixed lymphocyte reaction (PBMC donor-2), antibody 0.01 µg/mL [2]: 145 pg/mL; IL-2 release, mixed lymphocyte reaction (PBMC donor-2), antibody 0.1 µg/mL [2]: 182 pg/mL; IL-2 release, mixed lymphocyte reaction (PBMC donor-2), antibody 1 µg/mL [2]: 194 pg/mL; IFN-γ release, mixed lymphocyte reaction (PBMC donor-1), antibody 0.001 µg/mL [3]: 2900 pg/mL; IFN-γ release, mixed lymphocyte reaction (PBMC donor-1), antibody 0.01 µg/mL [3]: 7530 pg/mL; IFN-γ release, mixed lymphocyte reaction (PBMC donor-1), antibody 0.1 µg/mL [3]: 12100 pg/mL; IFN-γ release, mixed lymphocyte reaction (PBMC donor-1), antibody 1 µg/mL [3]: 8110 pg/mL; IFN-γ release, mixed lymphocyte reaction (PBMC donor-2), antibody 0.001 µg/mL [4]: 1810 pg/mL; IFN-γ release, mixed lymphocyte reaction (PBMC donor-2), antibody 0.01 µg/mL [4]: 5520 pg/mL; IFN-γ release, mixed lymphocyte reaction (PBMC donor-2), antibody 0.1 µg/mL [4]: 12700 pg/mL; IFN-γ release, mixed lymphocyte reaction (PBMC donor-2), antibody 1 µg/mL [4]: 15900 pg/mL; Kd [6]: 0.032 nM; koff [6]: 1.3e-05 s⁻¹; kon [6]: 408000 M⁻¹ s⁻¹
B7 | 50.6 | 475 | 2120 | 2340 |  |  |  |  | 
